This note sets out measurements from paper doi:10.1101/2022.11.19.22282342.

In this assay the target is TYROBP transmembrane domain (TMD), bacterial two-hybrid fusion (UniProt O43914). Put plainly: two-hybrid.
Chain of UniProt O43914 (O43914 22-113): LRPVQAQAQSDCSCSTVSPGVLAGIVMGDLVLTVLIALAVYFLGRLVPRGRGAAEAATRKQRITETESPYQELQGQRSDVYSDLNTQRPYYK
Regarding “TREM2 transmembrane domain (TMD), bacterial two-hybrid fusion (from UniProt Q9NZC2 19-230) (domain or fragment)”, the Miller Units (β-galactosidase, B2H) amounted to 903 Miller Units.

The molecule PLLIAFLLGPKVLLVVGVSVIYVY (domain or fragment) [SIRPβ1 isoform 202 transmembrane domain (TMD), bacterial two-hybrid fusion] came in with a Miller Units (β-galactosidase, B2H) of 94 Miller Units.

For the molecule PLLVALLLGPKLLLVVGVSAIYIC (domain or fragment) [SIRPβ1 isoform 201 transmembrane domain (TMD), bacterial two-hybrid fusion], the Miller Units (β-galactosidase, B2H) came out at 111 Miller Units.
